Experimental data reported in patent US20080138339A1.

Molecular target: OC183B2 (antigens associated with ovarian carcinoma) (human)
Test: indirect ELISA of phage-displayed scFv

binding activity relative to negative control: 2.5 times
B1: anti-ovarian carcinoma scFv antibody (scFv)
scFv: EVQLQESGPEVKKPGETVRISCKASGYTFTTAGMQWVQKMPGKGLKWLGWINTNSEVPKYAEDFRGRFAFSLETSASTAYLQISNLKNEDTATFFCARSFTWGTMDYWGQGTTVTVSSGGGGSGGGGSGGGGSDVVMTQTPLSLPVSLGDQASISCRSSQTLVHSIGNTYLHWYLQKPGQSPKLLIYKVSNRFSGVPDRFSGSGSGTDFTLKISRVEAEDLGVYFCSQSTHVPYTFGGGTKLELK
